Legend:
HER2 antigen = HER2 antigen (UniProt P04626); test: ELISA
[1] = biological target: EGFR1 antigen (Homo sapiens (assumed)) (UniProt P00533); test: ELISA

Kd (HER2 antigen)	Kd [1]	Substance
47.9 nM	–	ZHER2:4 affibody (designed binder)
–	3.5 nM	anti-EGFR1 nanobody 7D12 (VHH)
